Values of other authors as cited in paper PMC12860355.

Biological target: TATA-binding protein (Homo sapiens) (UniProt P20226)
Chain of UniProt P20226 (P20226 whole entry): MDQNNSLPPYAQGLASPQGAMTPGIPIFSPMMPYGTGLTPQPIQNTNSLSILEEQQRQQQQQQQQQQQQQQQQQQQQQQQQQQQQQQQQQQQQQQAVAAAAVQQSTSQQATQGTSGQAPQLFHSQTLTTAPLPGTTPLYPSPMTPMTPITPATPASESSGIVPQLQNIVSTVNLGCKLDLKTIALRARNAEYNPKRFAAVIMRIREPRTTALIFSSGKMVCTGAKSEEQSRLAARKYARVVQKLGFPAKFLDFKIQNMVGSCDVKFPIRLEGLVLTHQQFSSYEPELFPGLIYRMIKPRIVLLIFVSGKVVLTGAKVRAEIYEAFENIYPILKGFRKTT

Kd: 1 nM
Substance: Importin 9 (from UniProt Q96P70)
